Experimental findings from the supplement of paper PMC9170038 are described below.

The test system of data set [1] is MS2 coat protein. The experiment in a line: apparent KD of MS2 coat protein, switch ON state; designed switch direction (-1 OFF switch, 1 ON switch): -1; higher = weaker reporter binding. The settings on record: FMN input: 0 or 200 uM; Eterna round: R93 (includes R88 designs). Summed up:
(§1)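 Binding of SNAP-549-labelled MS2 coat protein was measured on designed RNA switches transcribed on-chip from Illumina sequencing clusters. The protein rose in twofold steps from 0.7 or 1.5 nM to 3 µM, with 0.8–1.5 h per step early on and 10–20 min per step later, in 100 mM Tris-HCl pH 7.5, 80 mM KCl, 4 mM MgCl2, without or with constant ligand. Each design's apparent KD is the median of fits to its normalised cluster binding curves.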

The test system of data set [2] is MS2 coat protein. The experiment in a line: apparent KD of MS2 coat protein, switch OFF state (with FMN for OFF switches, without FMN for ON switches); designed switch direction (-1 OFF switch, 1 ON switch): -1; higher = weaker reporter binding. The settings on record: FMN input: 0 or 200 uM; Eterna round: R93 (includes R88 designs). Summed up: as §1

On to “AACGCGUCAGGAUAUAGCAUAAAUUACGUAGUACGACCAUACUAGAAGGGACAUGAGGAUCACCCAUGUGGGUA [JR_Exc004_Sub207]”, for which the “apparent KD of MS2 coat protein” value in data set [1] is 167 nM; in data set [2] it was 90.4 nM.

Take “AACGGGCUAGGAUAUACACAAGCCUCAGAACAAAUAAACAAACAUGAGGAUCACCCAUGUAGAAGGAGCGCAAA [Lesocerean]”: the “apparent KD of MS2 coat protein” value was 30.6 nM in data set [1] and 42.9 nM in data set [2].

Turning to “AACUAGUGAGGAUAUACAAGAAAAAAAAAAAAAAUAAAGGGACAUGAGGAUCACCCAUGUAGAAGGCACUAACA [Diamond 69]”, the results for the “apparent KD of MS2 coat protein” value in data set [1] and in data set [2] were 37.7 nM and 64.9 nM, respectively.

“AACUGACAUGAGGAUCACCCAUGUCAGGAUAUGACAUCGAAAAAUAAAUAAAUCGUUGUCAGAAGGGACAUGAA [Design 76: Sub-opt S]”: the “apparent KD of MS2 coat protein” value in data set [1] is 16.3 nM; in data set [2], 14.9 nM.

On to “AACUGACAUGAGGAUCACCCAUGUCAGGAUAUGAUUUGACGAAAAAAAAAAAGUCAUAUCAGAAGGGACAUGGA [Design 81: Sub-opt UB]”, for which the figures for the “apparent KD of MS2 coat protein” value in data set [1] and in data set [2] were 24.7 nM and 41.5 nM, respectively.

Take “AACUGACAUGAGGAUCACCCAUGUCAGGAUAUGCUUCAUAAAAAAAAAAAAAAAUGAUGCAGAAGGGACAUGGG [Design 32 :P Sub-opt 8]”: the “apparent KD of MS2 coat protein” value in data set [1] was 41.6 nM; in data set [2], 110 nM.

In the case of “AACUGACAUGAGGAUCACCCAUGUCAGGAUAUGCUUCAUAAAAAGAAAUAAAAAUGAUGCAGAAGGGAUAUGGG [Design 34 :P Sub-opt 10]”, the “apparent KD of MS2 coat protein” value in data set [1] came out at 24.6 nM; in data set [2] it was 37.1 nM.

With “AAGAAACAUGAGGAUCACCCAUGUGAGGAUAUCCAAGAAAGAAAGAAAGAAAGAAGAAGGAGAAGGCACAAAGG [Quintus Ostorius Scapula]”, the “apparent KD of MS2 coat protein” value came to 50.5 nM in data set [1] and 119 nM in data set [2].

“AAGAAACAUGAGGAUCACCCAUGUGAGGAUAUCGAAAAGAAAAGAAAAGAAAGAAGAACGAGAAGGCACAAAGG [Neferkare (V) Tereru]”: the entries for the “apparent KD of MS2 coat protein” value in data set [1] and in data set [2] were 52.7 nM and 76.2 nM, respectively.

As for “AAGAAACAUGAGGAUCACCCAUGUGAGGAUAUGCAAGAAAGAAAGAAAGAAAGAAGAAGCAGAAGGCACAAAGG [Gaius Turranius]”, the “apparent KD of MS2 coat protein” value in data set [1] was 42.4 nM; in data set [2], 65.9 nM.

For “AAGAAACGAGGAUAUACAAAAUAAAAGAAAAGAAAGAAAGAACAUGAGGAUCACCCAUGUAGAAGGCGUAAGAA [Wahibre Ibiau]”, the “apparent KD of MS2 coat protein” value worked out at 44.6 nM in data set [1] and 30.3 nM in data set [2].

Consider “AAGAACAGAGGAUAUACAUGAGGAUCACCCAUGUAAAAGAAAGAAAAGGGAAAGAAAAGUAGAAGGCUGAAGAA [Ankhkheperure Smenkhkare]”, for which the “apparent KD of MS2 coat protein” value in data set [1] is 22.9 nM; in data set [2], 42.8 nM.

In the case of “AAGAACCGAGGAUAUACAUGAGGAUCACCCAUGUAAAAGAAAGAAAAGGGAAAGAAAAGUAGAAGGCGGAAGAA [Aakheperenre Thutmose II]”, the “apparent KD of MS2 coat protein” value in data set [1] was found to be 42.8 nM; in data set [2], 55.5 nM.

Turning to “AAGAACGAAGGAUAUACAAAAUAAAAGAAAAGAAAGAAAGAACAUGAGGAUCACCCAUGUAGAAGGUCGAAGAA [Awybre Hor I]”, the figures for the “apparent KD of MS2 coat protein” value in data set [1] and in data set [2] were 10.5 nM and 25.8 nM, respectively.

On to “AAGAACGAAGGAUAUACAUGAGGAUCACCCAUGUAAAAGAAAGAGGGAAAAGAGAAAAGUAGAAGGUCGAAGAA [Ptolemy VIII Euergetes II]”, for which the “apparent KD of MS2 coat protein” value was determined as 20.4 nM in data set [1] and 23.8 nM in data set [2].

As to “AAGAACGGAGGAUAUACAUGAAAGAAAGAAAAGAAAAGAAAACAUGAGGAUCACCCAUGUAGAAGGCCGAAGAA [EteRNA is fun!]”, the “apparent KD of MS2 coat protein” value is 23.4 nM in data set [1] and 53.3 nM in data set [2].

In the case of “AAGAAGCAAGGAUAUACAUGAGGAUCACCCAUGUAAAAGAAAGAAAAGGGAAAGAAAAGUAGAAGGUGCAAGAA [Menmaatre Seti I]”, the “apparent KD of MS2 coat protein” value in data set [1] was found to be 21.6 nM; in data set [2], 27 nM.

Take “AAGAAGCGAGGAUAUACAUGAAAGAAAGAAAAGAAAAGAAAACAUGAGGAUCACCCAUGUAGAAGGCGCAAGAA [EteRNA is fun!]”: the “apparent KD of MS2 coat protein” value in data set [1] came out at 21.4 nM; in data set [2], 28.2 nM.

With “AAGAAGCGAGGAUAUACAUGAGGAUCACCCAUGUAAAAGAAAGAAGGGAAAGAGAAAAGUAGAAGGCGCAAGAA [Hedjkheperre-setpenre Takelot II]”, the “apparent KD of MS2 coat protein” value in data set [1] stood at 70.7 nM; in data set [2], 109 nM.

As for “AAGAAGGAAGGAUAUACAUGAGGAUCACCCAUGUAAAAGAAAGAAAGGGAAAAGAAAAGUAGAAGGUCCAAGAA [Aakheperre Setepenre Osorkon]”, the “apparent KD of MS2 coat protein” value came out at 25.4 nM in data set [1] and 38.7 nM in data set [2].

Take “AAGAAGGUAGGAUAUACUAAAGAAAUAAAAAUAAAUAAAGAACAUGAGGAUCACCCAUGUAGAAGGGCCAAGAA [Merkheperre]”: the “apparent KD of MS2 coat protein” value was determined as 54.4 nM in data set [1] and 50.8 nM in data set [2].

For “AAGAAGUAAGGAUAUCGGAGAGAACAAGAAAGUGAAGAAUACGAGAAGGUACAUGAGGAUCACCCAUGUAAAGA [EXC - 4]”, the “apparent KD of MS2 coat protein” value came to 26.9 nM in data set [1] and 19 nM in data set [2].

Consider “AAGAAGUCAGGAUAUCGAAGACUGUCGAAAAGACAGUCGAACGAGAAGGGACAUGAGGAUCACCCAUGUGGAAA [Marsurpial 65% 7]”, for which the figures for the “apparent KD of MS2 coat protein” value in data set [1] and in data set [2] were 56.3 nM and 112 nM, respectively.

Regarding “AAGAAGUGAGGAUAUACAAAAUAAAAGAAAAGAAAGAAAGAACAUGAGGAUCACCCAUGUAGAAGGCGCAAGAA [Merhotepre Ini]”, the “apparent KD of MS2 coat protein” value in data set [1] was 24.5 nM; in data set [2], 24.9 nM.

With “AAGAAUAGAGGAUAUACAAGGAAGAAAGAAAAGAAAAGAAAACAUGAGGAUCACCCAUGUAGAAGGCUAUAGAA [EteRNA is fun!]”, the results for the “apparent KD of MS2 coat protein” value in data set [1] and in data set [2] were 30.9 nM and 26.2 nM, respectively.

Turning to “AAGAGUAGAGGAUAUACAAAGGGAGAGUCGAAAGACUCAAAACAUGAGGAUCACCCAUGUAGAAGGCUACUCAA [Hyphema Seclusion Mod 62% 7]”, the “apparent KD of MS2 coat protein” value was 213 nM in data set [1] and 746 nM in data set [2].

For “AAGAGUAGAGGAUAUACAUAAAAAGAGUCGAAAGACUCGGGACAUGAGGAUCACCCAUGUAGAAGGCUACUCAA [Hyphema Seclusion Mod 62% 4]”, the “apparent KD of MS2 coat protein” value in data set [1] turned out to be 98.6 nM; in data set [2] it was 406 nM.

In the case of “AAGAUGUGAGGAUAUGCUGCUCGUCACAAAAGUGAUGAGUAGCAGAAGGUACAUGAGGAUCACCCAUGUAAAGA [JL eternac mod 7]”, the “apparent KD of MS2 coat protein” value in data set [1] is 32.4 nM; in data set [2], 20.9 nM.

As for “AAGGAUAGAGGAUAUACAUAGAUACAGAUUCAUGUAGAACUACAUGAGGAUCACCCAUGUAGAAGGCUAUCAUA [AJ 32]”, the “apparent KD of MS2 coat protein” value in data set [1] was 27.9 nM; in data set [2], 89.1 nM.

Consider “AAGGGACAUGAGGAUCACCCAUGUCAGGAUAUCGGAAAAGGAAAAAAAAAAAAGAAGACGAGAAGGGACACCAA”, for which the “apparent KD of MS2 coat protein” value stood at 28.6 nM in data set [1] and 26.8 nM in data set [2].

Consider “AAGGUAUAAGGAUAUGCAUAGAUACAGACACAUGUUCAAGUACAUGAGGAUCACCCAUGUAGAAGGUAUAUAUA [AJ 12]”, for which the “apparent KD of MS2 coat protein” value in data set [1] was 32.2 nM; in data set [2], 26 nM.

With “AAGUCGUGAGGAUAUACAUGGAUAUACAUUCAUGUGGACCUACAUGAGGAUCACCCAUGUAGAAGGCACGAAUA [AJ 49]”, the “apparent KD of MS2 coat protein” value in data set [1] came out at 35.2 nM; in data set [2], 53.5 nM.

For “AAUAAACAUGAGGAUCACCCAUGUGAGGAUAUGGUAUUAUUAGGACAGUAAUGAUAUACCAGAAGGCACAAAUA [JR_Exc001_Sub1104]”, the “apparent KD of MS2 coat protein” value was found to be 36.9 nM in data set [1] and 53.5 nM in data set [2].

As to “AAUAAGUGAGGAUAUGUGAAUAGUAGAUAAGAUUCCCUAAAACAGAAGGCACAUGAGGAUCACCCAUGUAAAUA [JR_Exc004_Sub008]”, the “apparent KD of MS2 coat protein” value in data set [1] came out at 26.2 nM; in data set [2], 24.1 nM.

In the case of “AAUAGUGAAGGAUAUACUGGAGGAGUACGAUAAAAGAAAGAACAUGAGGAUCACCCAUGUAGAAGGUCAGAAGU [JR_Exc002_Sub1227]”, the “apparent KD of MS2 coat protein” value turned out to be 22.9 nM in data set [1] and 24.1 nM in data set [2].

Take “ACAAAGUGAGGAUAUGCUAUCGUACAAUAUAGUUAUCGUAUGCAGAAGGCACAUGAGGAUCACCCAUGUAAGAA [Ex 4 Tesla 9]”: the entries for the “apparent KD of MS2 coat protein” value in data set [1] and in data set [2] were 40.7 nM and 36.7 nM, respectively.

With “ACAAGAUCAGGAUAUACAUGAGGAUCACCCAUGUAUAUCAAAAAGGGACUUACUUAAUGUAGAAGGGAUCAUGU [EX3 280: Random 16]”, the figures for the “apparent KD of MS2 coat protein” value in data set [1] and in data set [2] were 12.7 nM and 13.9 nM, respectively.

As to “ACGUACUCAGGAUAUACGAACAUGUCAAAAGACGUGAAGGGACAUGAGGAUCACCCAUGUAGAAGGGAGUACGA [Mat - Exclusion 2 - JL mod - D6]”, the “apparent KD of MS2 coat protein” value was 33.6 nM in data set [1] and 148 nM in data set [2].

In the case of “ACGUCGGGAGGAUAUACAUGAGGAUCACCCAUGUAAAGCGGGAAAGACGUUUAGUCGAGUAGAAGGCCUGAAGU [JR_Exc003_Sub1709]”, the “apparent KD of MS2 coat protein” value stood at 26.1 nM in data set [1] and 45.5 nM in data set [2].

Take “ACUAAACGAGGAUAUACUAACGAACCUCAAACAUAGAUAAGACAUGAGGAUCACCCAUGUAGAAGGCGUAGACU [JR_Exc002_Sub008]”: the “apparent KD of MS2 coat protein” value turned out to be 74.6 nM in data set [1] and 59.7 nM in data set [2].
